In the RNAGym collection of RNA variant scans (doi:10.1073/pnas.2313332121):

B1: TPR t1 (parent)
chain: GACCAAUCUGCCCUCAGAGCUCGAGAACAUCUUCGGAUGCAGAGGAGGCAGGCUUCGGUGGCGCGAUAGCGCCAACGUCCUCAACCUCCAAUGCAUCCCACCACAUGAUGAUGCCUGAAGAGCCUUGGUUUUUUG

Variants of: B1
Assay: polymerase ribozyme fitness, log enrichment relative to wild type (log ratio); higher = more active; in vitro selection for triplet polymerase activity
Outline: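 One round of in vitro selection, in triplicate, was applied to PCR-built, transcribed mutant libraries of each subunit of a heterodimeric triplet polymerase ribozyme. The steps were annealing with a biotinylated primer, partner subunit and triplets, incubation frozen at −7 °C, gel excision of extended constructs, streptavidin-bead capture and RT-PCR. Fitness is the logarithm, base 2, of genotype enrichment over wild-type enrichment from inverse-variance-weighted replicate averages of Illumina-sequenced inputs and outputs, keeping genotypes with ≥10 input reads and ≥1 read per output.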

Variant | polymerase ribozyme fitness (log ratio)
G19U C34A G69C C114U | -6.59
C56A G69U C88G C115U | -1.62
C86U U112G | 0.18
A18C C89G C114A U130A | -3.2
A5U G10U C49G C62G | -4.17
C49U A95C | -1
C12U A16G C28U A46C G120C | -1.6
G44C G47U G48A | -1.43
C13U A46G A50U C53U U129C | -2.72
A46C C76G G122A | -1.33
C73U C124A | 2.11
C3U C34G G63U | -6.26
G52U C64U | -0.768
A6U A16G G63U C89U | -3.25
C79U A91C A100U | -3.6
C49U G58C G60U C114U U129A | -5.08
G45C A50C | -0.909
U54C G120A | -0.357
C82U A95C U106A | -0.318
A5C C73G C86G C99U G110A U112G | -7.21
A27C G44U C64U | -4.14

Variant | polymerase ribozyme fitness (log ratio)
C3U G35U C70A C99A C115A | -4.32
G44U G63U C115G | -3.72
A18C C49G C89G C123U | -2.67
U7C A18G G117C | -4.72
A74U G93U G120A U125G U129G | -2.55
U9G A100U G128A | -1.71
G58C U112C A121G | 1.44
A27G A43G G63C | -4.38
G61A A83G | -1.47
A37C G42A A43U C104A | -5.34
G10A G63A C89A | -3.25
A18G C101U C114U U129A | -5.75
C56G A74G | -1.5
C15A G48U A50G C115U | -4.63
A5U | -0.135
C98U U106A G110U G120C | -2.16
G48U C49U C73G G120U | 0.0945
G10C C13A C82U A83C | -0.888
G44C U106C | -0.754
C53U G71U U92A A119U C124U | -2.62
C114U G127U | -3.69

Variant | polymerase ribozyme fitness (log ratio)
C13A U14A G44A C56U | -2.36
C8G G93A G113A | -0.312
C53U A111G | 0.578
G10U U92C | -0.873
C12U G52A C86U C97A | -4.13
C11A G61C A100C A121U | -1.61
G48A C85G C115U | -2.75
U9A A46U G77C G122A | -0.702
C115A A118U U131A | -1.85
U33G C97A | -5.28
A46U G63U A83U G110U | -6.56
A68U U78C | -6.34
C89G C94U | -0.951
C88G A111C | 0.0984
C62A U129G | -1.28
C76A A90G | -0.633
A43C C49A G52A C73U U81C A95C C123A | -6.02
A27U G71C | -4.45
U54G C82A C94G C124U | 0.658
G36A C72U U116C | -1.78
C40G G71A U78G | -2.94

Variant | polymerase ribozyme fitness (log ratio)
A46C C56A | -1.56
A41G C73U | -0.342
G63C C80G | -6.96
A41G C89G G128C | -3.51
G52U C72U U78C | -0.804
A16U G47U G52U C115U G117C | -5.71
U59C C97U C114G | -4.47
C73G A83G | -1.44
G10A A41C G52U C79U C82G U130G | -2.72
G42U C56U G127U | -2.75
C11G C76A C79U A90U A119C G120U | -0.651
C28U A29G C72U U112A C124U | -7.83
C22G C104A | -5.33
A29U G45C G61A A111G C124G | -3.05
C8A A24U G25U A43G C70G A105C U112G | -7.66
C53A G69U | 1.4
A27U C89U C124A | -1.39
G42C G61C | -4.07
U92G A118C | -4
A18C U116A | -3.4
C99G C124U | -6.43
